Changes are numbered by the printed parent chain. Like-named read-outs stand apart in the source and are kept apart here.
Legend:
[1] = biological target: Canine FcRn-B2M recombinant protein (Immunitrack) (canine); assay: SPR (Biacore 8K), canine FcRn-B2M amine-coupled on CM5 chip, running buffer pH 6, steady state affinity
[2] = biological target: T1, Human nerve growth factor (NGF) (human, UniProt P01138 122-241); assay: cell-based or functional assay
[3] = biological target: T2, Rat nerve growth factor (NGF) (rat, UniProt P25427 122-241); assay: SPR (Biacore 8K), PetML119 captured on Protein A chip, rat NGF as analyte, kinetics affinity
T2 construct: Bought reagent; also called rat NGF
T2 sequence (P25427 122-241 limits assumed): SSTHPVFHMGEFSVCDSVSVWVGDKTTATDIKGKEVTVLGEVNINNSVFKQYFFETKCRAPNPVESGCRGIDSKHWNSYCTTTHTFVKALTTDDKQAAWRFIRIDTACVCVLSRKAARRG
Experimental: (§1) Briefly, Protein A Sensor Chip (Cytiva) was docked into Biacore 8K, equilibrated for 30' at RT and then Running Buffer (10 mM HEPES pH7.4 150 mM NaCl 3 mM EDTA and 0.005% Tween20) was applied to the SPR chip surface.
(§2) These have been immobilised using 90 sec association at 10 uL/min as capturing step, followed by injection of running buffer to remove any unbound product.
(§3) Kinetics were assessed using multi-cycle kinetics with capture step method (30 sec association-120 sec dissociation) followed by regeneration step (0.1M Glycine pH2.2 contact time 60 sec FR 30 uL/min).

[4] = biological target: T1, Human nerve growth factor (NGF); assay: SPR (Biacore 8K), PetML119 captured on Protein A chip, human NGF as analyte, kinetics affinity
Experimental: as §1, §2, §3

[5] = biological target: T3, Murine FcRn-B2M recombinant protein (Immunitrack) (murine, UniProt Q61559 22-297; P01887 21-119, limits assumed); assay: SPR (Biacore 8K), murine FcRn-B2M amine-coupled on CM5 chip, running buffer pH 6, steady state affinity
T3 construct: Bought reagent, amine-coupled to a CM5 chip; also called murine neonatal receptor
T3 sequence (looked up): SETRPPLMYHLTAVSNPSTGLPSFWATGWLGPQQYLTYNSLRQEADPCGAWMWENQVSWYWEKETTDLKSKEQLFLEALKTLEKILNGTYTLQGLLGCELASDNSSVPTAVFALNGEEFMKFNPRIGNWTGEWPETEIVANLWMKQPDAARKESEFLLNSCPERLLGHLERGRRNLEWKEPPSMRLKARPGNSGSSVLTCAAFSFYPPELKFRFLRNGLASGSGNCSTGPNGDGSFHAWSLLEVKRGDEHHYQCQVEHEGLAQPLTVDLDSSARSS
T3 sequence (b2m, looked up): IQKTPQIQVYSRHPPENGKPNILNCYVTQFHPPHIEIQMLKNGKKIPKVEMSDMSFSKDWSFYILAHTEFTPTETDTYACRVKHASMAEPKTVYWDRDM
Experimental: (§4) Briefly, CM5 Sensor Chip (Cytiva) was docked into Biacore 8K, equilibrated for 30' at RT and then Running Buffer (10 mM HEPES pH6 150 mM NaCl 3 mM EDTA and 0.005% Tween20) was applied to the SPR chip surface.
(§5) Canine and murine FcRn-B2M recombinant protein (Immunitrack, ITF12-ITF08) was diluted into 10 mM acetate buffer pH4.5 at 4 nM (1:2000 dilution from stock) and immobilised using standard amine coupling reaction.

[6] = biological target: T3, Murine FcRn-B2M recombinant protein …; assay: as above; remark: listed apart in the source
Experimental: as §4, §5

[7] = biological target: T3, Murine FcRn-B2M recombinant protein …; assay: SPR (Biacore 8K), murine FcRn-B2M amine-coupled on CM5, pH 6, multi-cycle kinetics; reference not named, taken as PetML119 (wild type Fc)
Experimental: as §4, §5

[8] = biological target: T1, Human nerve growth factor (NGF); assay: SPR (Biacore 8K), human NGF as analyte on Bedinvetmab, kinetics affinity, 1:1 binding fit

T1 sequence (P01138 122-241 limits assumed): as the sequence (P25427 122-241 limits assumed) above, with T3S, V6I, M9R, T37M, A60D, E65D, T92M, D94G, A117V, G120A counted along it

“PetML122 (canine p75NTR ECD - canine Fc YTE protein fusion) (Fc fusion)” was tested, and the Kd [1] was 400 nM.

In the case of “PetML119 (canine p75NTR ECD - canine IgGB wt Fc protein fusion) (Fc fusion)”, the Kd [1] is reported as 6000 nM.

B1: PetML119 (canine p75NTR ECD - canine IgGB wt Fc protein fusion) (Fc fusion)
chain: KEACPTGLYTHSGECCKACNLGEGVAQPCGANQTVCEPCLDSVTFSDVVSATEPCKPCTECVGLQSMSAPCVEADDAVCRCAYGYYQDETTGRCEACRVCEAGSGLVFSCQDRQNTVCEECPDGTYSDEANHVDPCLPCTVCEDTERQLRECTRWADAECEEIPGGGGRENGRVPRPPDCPKCPAPEMLGGPSVFIFPPKPKDTLLIARTPEVTCVVVDLDPEDPEVQISWFVDGKQMQTAKTQPREEQFNGTYRVVSVLPIGHQDWLKGKQFTCKVNNKALPSPIERTISKARGQAHQPSVYVLPPSREELSKNTVSLTCLIKDFFPPDIDVEWQSNGQQEPESKYRTTPPQLDEDGSYFLYSKLSVDKSRWQRGDTFICAVMHEALHNHYTQKSLSHSPGK
notes: also called PetMI119; Fc-Bwt
In the case of B1, the “IC50 (nM), inhibition of TF-1 cell proliferation” value (“IC50 (nM), inhibition” below) [2] is reported as 15.2 nM, the Kd [3] is reported as 0.12 nM and the Kd [4] is reported as 0.12 nM. It also gave a Kd [5] of 2000 nM.

B2: PetML122 (canine p75NTR ECD - canine Fc YTE protein fusion) (Fc fusion)
chain: B1 chain with L206Y, A208T, T210E
notes: Same construct as PetML119, but with the YTE triple mutation in the Fc; also called PetMI122; Fc-B-YTE
For B2, the “IC50 (nM), inhibition” value [2] was 5.91 nM, the Kd [6] was 90 nM and the “fold increase in binding affinity” value [7] was 10 fold.

B3: Bedinvetmab (antibody, V domains shown)
VH: EVQLVESGGDLVKPGGSLRLSCVASGFTFSSHGMHWVRQSPGKGLQWVAVINSGGSSTYYTDAVKGRFTISRDNAKNTVYLQMNSLRAEDTAMYYCAKESVGGWEQLVGPHFDYWGQGTLVIVSS
VL: QSVLTQPTSVSGSLGQRVTISCSGSTNNIGILGASWYQLFPGKAPKLLVYGNGNRPSGVPDRFSGADSGDSVTLTITGLQAEDEADYYCQSFDTTLGAHVFGGGTHLTVL
In the case of B3, the “IC50 (nM), inhibition” value [2] is reported as 1.65 nM and the Kd [8] is reported as 0.073 nM.

From patent publication US11608371 (PETMEDIX, dated 2023)
